Assay results taken from patent US20140302034A1 (STEM CENTRX, published 2014).

T1: recombinant human EFNA3 His fusion protein (human, UniProt P52797 23-214)
T1 construct: also called ephrinA3-His; immobilized human EFNA3; not shown: His tag
T1 sequence: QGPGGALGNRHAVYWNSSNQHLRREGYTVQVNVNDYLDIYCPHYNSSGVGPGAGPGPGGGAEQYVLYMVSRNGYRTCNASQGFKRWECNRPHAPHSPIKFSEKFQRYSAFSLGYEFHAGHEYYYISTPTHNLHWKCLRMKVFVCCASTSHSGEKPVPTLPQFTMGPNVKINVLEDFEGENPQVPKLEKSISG

T2: mouse EFNA3 (mouse, UniProt O08545)
T2 construct: the sheet prints only 'Ms XR'; also called mouse ephrin-A3 homolog
T2 sequence (ligand, looked up): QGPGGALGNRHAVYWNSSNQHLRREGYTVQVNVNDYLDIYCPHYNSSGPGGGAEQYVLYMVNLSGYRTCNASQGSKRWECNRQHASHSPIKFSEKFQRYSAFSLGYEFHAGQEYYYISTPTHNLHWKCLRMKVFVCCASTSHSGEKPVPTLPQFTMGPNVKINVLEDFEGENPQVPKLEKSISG


Assays:
[1] = biological target: T1, recombinant human EFNA3 His fusion …; assay: BLI (ForteBio RED), antigen concentration series; column Affinity (nM)
Experimental: Various methods were used to analyze the immunochemical characteristics of selected EFNA1 and EFNA3 modulators generated as set forth above. Specifically, a number of these antibodies were characterized as to affinity, kinetics, binning, and cross reactivity with regard to cynomolgus and mouse homologs (e.g., by ForteBio). The reactivity of the modulators was also measured by Western blot using reduced and non-reduced samples to provide some indication as to whether the epitopes were linear or not. In addition, the antibodies were tested for their ability to neutralize (e.g., block receptor ligand interaction as per Example 11), and were benchmarked for their relative EC₅₀ of killing by in vitro cytotoxicity assay (e.g., as per Examples 12-14). The results of this characterization are set forth in tabular form in FIG. 8 for modulators that primarily react with EFNA1 and in FIG. 9 for modulators that primarily react with EFNA3. Affinities and kinetic constants kₒₙ and koff of the selected modulators were measured using bio-layer interferometry analysis on a ForteBio RED (ForteBio, Inc.) with a standard antigen concentration series.

[2] = biological target: recombinant human EFNA1 His fusion protein (human) (UniProt P20827); assay: as above
[3] = biological target: T2, mouse EFNA3; assay: cross-reactivity with the mouse homolog (e.g. by ForteBio)

Chain of recombinant human EFNA1 His fusion protein (human) (P20827 19-182 limits assumed): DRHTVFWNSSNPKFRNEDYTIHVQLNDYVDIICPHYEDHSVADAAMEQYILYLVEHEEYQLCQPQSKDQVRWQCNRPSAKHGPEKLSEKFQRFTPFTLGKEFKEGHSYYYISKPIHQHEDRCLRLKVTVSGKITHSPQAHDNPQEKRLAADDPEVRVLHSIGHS

Row | Kd [1] [nM] | Kd [2] [nM] | binding result [3] | Binder
1 | 0.2 |  |  | SC11.32 (antibody, V domains shown, Murine monoclonal antibody from a hybridoma; also called EFNA3 modulator SC11.32) VH: QVQLQQPGAEIVRPGASVKLSCKASGYTFTAYWMHWVKQRPGQGPEWIGAIDPSDSYTYYNQKFKGKATLTVDTSSNSAYMQLSSLTSEDSAVYFCARWDYYDGNWGQGTTLTVSS VL: DVVMTQTPLSLPVSLGDQASISCRSSQSLVHSDGNTYLHWYLQKPGQSPKLLIYRVSNRFSGVPDRFSGSGSGTDFTLKISRVEAEDLGVYFCSQSTHVPYTFGGGTKLEIK
2 |  | 0.5 |  | SC9.20 (antibody, V domains shown) VH: DVQLQESGPGLVKPSQSLSLTCSVTGYSITSGYYWNWIRQFPGNRLEWMAYISYDGSNDYNPSLKNRISITRDTSKNQFFLKLNSVTTEDTATYYCARGYPILFAYWGQGTLVTVSA VL: DIKMTQSPSSMNASLGERVSITCKTSQDINSYLSWLQQKPGKSPKTLIYRANRLVDGVPSRFSGSGSGQDYSLTISSLEYEDMGIYYCLQYDEFPLTFGIGTKLELK
3 | 1 |  |  | SC11.51 (antibody, V domains shown, Murine monoclonal antibody from a hybridoma; also called EFNA3 modulator SC11.51) VH: EVQLQQSGPELVKPGASVKISCKASGYTFTDYYMNWVKQTHGKSLEWIGDITPNSGGPTYNQNFKGKATLTVDRSSTTAFMELRSLTSDDSAVYYCVRSAYYYGTNYDFDYWGQGTTLTVSS VL: QIVLTQSPAIMSASPGEKVTMTCSASSSVTYMYWYQQKPGSSPKPWIYRTSNLASGVPTRFSGSGSGTSYSLTISSVEAEDTATYYCQQYSDYPLTFGAGTKLELK
4 | 2 |  | no binding | SC11.34 (antibody, V domains shown, Murine monoclonal antibody from a hybridoma; also called EFNA3 modulator SC11.34) VH: DVHLQETGPGLVKPSQSLSVTCTVTGYSITSDYAWNWIRQFPGNKLEWMGYISYSGGTRYNPSVKSRISITRDTSKNQFFLQLNSVTTEDTATYYCARGPYAGYPAWFDYWGPGTLVTVSA VL: ENVLTQSPAIMSASLGEKVTMSCRANSSINYMYWYQQKSDASPKLWIYYTSNLAPGVPARFSGSGSGNSYSLTISSMEGEDAATYYCQQFTSSPWTFGGGTKLEIK
